Test results reported in patent publication US10738094B2, “Peptides and combination of peptides for use in immunotherapy against ovarian cancer and other cancers” (immatics biotechnologies GmbH, priority 2015, dated 2020).

Columns and labels:
[1] = system: CD8+ T cells; assay: In vitro immunogenicity for MHC class I presented peptides (priming of CD8+ T cells with aAPCs, pMHC multimer staining); type: cell-based, human; settings: for Wells positive [%]: HLA-A*02 restricted peptides, positive wells among evaluable
From the text: In order to obtain information regarding the immunogenicity of the TUMAPs of the present invention, the inventors performed investigations using an in vitro T-cell priming assay based on repeated stimulations of CD8+ T cells with artificial antigen presenting cells (aAPCs) loaded with peptide/MHC complexes and anti-CD28 antibody.
In order to perform in vitro stimulations by artificial antigen presenting cells loaded with peptide-MHC complex (pMHC) and anti-CD28 antibody, the inventors first isolated CD8+ T cells from fresh HLA-A*02 leukapheresis products via positive selection using CD8 microbeads (Miltenyi Biotec, Bergisch-Gladbach, Germany) of healthy donors obtained from the University clinics Mannheim, Germany, after informed consent.
PBMCs and isolated CD8+ lymphocytes were incubated in T-cell medium (TCM) until use consisting of RPMI-Glutamax (Invitrogen, Karlsruhe, Germany) supplemented with 10% heat inactivated human AB serum (PAN-Biotech, Aidenbach, Germany), 100 U/ml Penicillin/100 μg/ml Streptomycin (Cambrex, Cologne, Germany), 1 mM sodium pyruvate (CC Pro, Oberdorla, Germany), 20 μg/ml Gentamycin (Cambrex). 2.5 ng/ml IL-7 (PromoCell, Heidelberg, Germany) and 10 U/ml IL-2 (Novartis Pharma, Nürnberg, Germany) were also added to the TCM at this step.
Generation of pMHC/anti-CD28 coated beads, T-cell stimulations and readout was performed in a highly defined in vitro system using four different pMHC molecules per stimulation condition and 8 different pMHC molecules per readout condition.
The purified co-stimulatory mouse IgG2a anti human CD28 Ab 9.3 (Jung et al., 1987) was chemically biotinylated using Sulfo-N-hydroxysuccinimidobiotin as recommended by the manufacturer (Perbio, Bonn, Germany). Beads used were 5.6 μm diameter streptavidin coated polystyrene particles (Bangs Laboratories, Illinois, USA).
pMHC used for positive and negative control stimulations were A*0201/MLA-001 (peptide […] (SEQ ID NO. 664) from modified Melan-A/MART-1) and A*0201/DDX5-001 ([…] from DDX5, SEQ ID NO. 665), respectively.
800,000 beads/200 μl were coated in 96-well plates in the presence of 4×12.5 ng different biotin-pMHC, washed and 600 ng biotin anti-CD28 were added subsequently in a volume of 200 μl. Stimulations were initiated in 96-well plates by co-incubating […] CD8+ T cells with 2×10^5 washed coated beads in 200 μl TCM supplemented with 5 ng/ml IL-12 (PromoCell) for 3 days at 37° C. Half of the medium was then exchanged by fresh TCM supplemented with 80 U/ml IL-2 and incubating was continued for 4 days at 37° C. This stimulation cycle was performed for a total of three times. For the pMHC multimer readout using 8 different pMHC molecules per condition, a two-dimensional combinatorial coding approach was used as previously described (Andersen et al., 2012) with minor modifications encompassing coupling to 5 different fluorochromes. Finally, multimeric analyses were performed by staining the cells with Live/dead near IR dye (Invitrogen, Karlsruhe, Germany), CD8-FITC antibody clone SK1 (BD, Heidelberg, Germany) and fluorescent pMHC multimers. For analysis, a BD LSRII SORP cytometer equipped with appropriate lasers and filters was used. Peptide specific cells were calculated as percentage of total CD8+ cells. Evaluation of multimeric analysis was done using the FlowJo software (Tree Star, Oreg., USA). In vitro priming of specific multimer+ CD8+ lymphocytes was detected by comparing to negative control stimulations.
Exemplary flow cytometry results after TUMAP-specific multimer staining for two peptides of the invention are shown in FIG. 3 together with corresponding negative controls.

[2] = target: HLA-A*02:01 (Homo sapiens, UniProt P04439, D140Y/D185E/D98H/E176V/E277Q/G131W/G231S/I119V/I121R/I166T/I218V/L300P/L318F/N151K/N90K/P208A/P217A/Q86G/Q94H/R138H/R169H/T345S); assay: MHC binding assay (UV-ligand exchange, beta2m ELISA); settings: binding to HLA-A*02:01 ranged by peptide exchange yield (UV-ligand exchange, β2m ELISA)
In short: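 Stabilised complexes were quantified via their β2m light chain: 100-fold-diluted monomers bound to streptavidin plates, then HRP anti-β2m at 2 ug/ml for 1 h at 37° C., TMB read at 450 nm. The value is the yield of UV-induced exchange of a photocleavable peptide for the candidate.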

| Substance | Peptide exchange [2] | Wells positive [%] [1] | in vitro immunogenicity: donors ([1]; percentage of positive donors) |
| --- | --- | --- | --- |
| 2 (SLLEADPFL; listed as Homo sapiens) [compound 2] | “+++” (≥50 = +++) | “+” (<20% = +) | – |
| 3 (SLASKLTTL; listed as Homo sapiens) [compound 3] | “++++” (≥75% = ++++) | “+” (<20% = +) | – |
| 8 (FTLGNVVGMYL; listed as Homo sapiens) [compound 8] | “++++” (≥75% = ++++) | “+” (<20% = +) | – |
| 11 (KIFEMLEGV; listed as Homo sapiens) [compound 11] | “+++” (≥50 = +++) | “+” (<20% = +) | – |
| 36 (YVLEDLEVTV; listed as Homo sapiens) [compound 36] | “++” (≥20% = ++) | “+” (<20% = +) | – |
| 38 (FLLEDDIHVS; listed as Homo sapiens) [compound 38] | “+++” (≥50 = +++) | “+” (<20% = +) | – |
| 48 (ALAELYEDEV; listed as Homo sapiens) [compound 48] | “+++” (≥50 = +++) | “+” (<20% = +) | – |
| 56 (KLYEGIPVLL; listed as Homo sapiens) [compound 56] | “++++” (≥75% = ++++) | “+” (<20% = +) | – |
| 60 (SLTIDGIYYV; listed as Homo sapiens) [compound 60] | “++++” (≥75% = ++++) | “++++” (>=70% = ++++) | – |
| 79 (SLFIGEKAVLL; listed as Homo sapiens) [compound 79] | “+++” (≥50 = +++) | “+” (<20% = +) | – |
| 113 (GLLPTPLFGV; listed as Homo sapiens) [compound 113] | “+++” (≥50 = +++) | “+” (<20% = +) | – |
| 118 (KLIDNNINV; listed as Homo sapiens) [compound 118] | “+++” (≥50 = +++) | “+” (<20% = +) | – |
| 141 (YLDFSNNRL; listed as Homo sapiens) [compound 141] | “++” (≥20% = ++) | “+” (<20% = +) | – |
| 143 (LLLDITPEI; listed as Homo sapiens) [compound 143] | “++++” (≥75% = ++++) | “+” (<20% = +) | – |
| 150 (RLWEEGEELEL; listed as Homo sapiens) [compound 150] | “+++” (≥50 = +++) | “+” (<20% = +) | – |
| 166 (YLNHLEPPV; listed as Homo sapiens) [compound 166] | “+++” (≥50 = +++) | “++++” (>=70% = ++++) | – |
| 199 (ALQDVPLSSV; listed as Homo sapiens) [compound 199] | “+++” (≥50 = +++) | “+” (<20% = +) | – |
| 247 (VLLPNDLLEKV; listed as Homo sapiens) [compound 247] | “+++” (≥50 = +++) | “+” (<20% = +) | – |
| 319 (SLEPQIQPV; listed as Homo sapiens) [compound 319] | “++” (≥20% = ++) | “+” (<20% = +) | – |
| 652 (TLWYRAPEV; listed as Homo sapiens) [compound 652] | – | – | ++++ (>=70% = ++++) |

Further lines, with some results ahead:

| Peptide exchange [2] | Substance | Wells positive [%] [1] | in vitro immunogenicity: donors ([1]; percentage of positive donors) |
| --- | --- | --- | --- |
| “+++” (≥50 = +++) | 384 (ILFANPNIFV; listed as Homo sapiens) [compound 384] | “+” (<20% = +) | – |
| “+++” (≥50 = +++) | 443 (GLWEIENNPTV; listed as Homo sapiens) [compound 443] | “+” (<20% = +) | – |
| “++++” (≥75% = ++++) | 460 (AMLEKNYKL; listed as Homo sapiens) [compound 460] | “+” (<20% = +) | – |
| “+++” (≥50 = +++) | 489 (KMWEELPEVV; listed as Homo sapiens) [compound 489] | “+” (<20% = +) | – |
| “++” (≥20% = ++) | 499 (KIFDIDEAEEGV; listed as Homo sapiens) [compound 499] | “+” (<20% = +) | – |
| “++” (≥20% = ++) | 511 (FLDPYCSASV; listed as Homo sapiens) [compound 511] | “+” (<20% = +) | – |
| “++” (≥20% = ++) | 603 (FLIEPEHVNTV; listed as Homo sapiens) [compound 603] | “+” (<20% = +) | – |
| “+++” (≥50 = +++) | 616 (VLIDEVESL; listed as Homo sapiens) [compound 616] | – | – |
| “+++” (≥50 = +++) | 617 (ALMYESEKVGV; listed as Homo sapiens) [compound 617] | – | – |
| “+++” (≥50 = +++) | 618 (VLFDSESIGIYV; listed as Homo sapiens) [compound 618] | – | – |
| “+++” (≥50 = +++) | 619 (ALQDRVPLA; listed as Homo sapiens) [compound 619] | – | – |
| “++++” (≥75% = ++++) | 620 (KLLNKIYEA; listed as Homo sapiens) [compound 620] | – | – |
| “++++” (≥75% = ++++) | 621 (VLMDRLPSLL; listed as Homo sapiens) [compound 621] | – | – |
| “+++” (≥50 = +++) | 622 (RLLGEEVVRVLQA; listed as Homo sapiens) [compound 622] | – | – |
| “+++” (≥50 = +++) | 623 (YLVEDIQHI; listed as Homo sapiens) [compound 623] | – | – |
| “+++” (≥50 = +++) | 635 (SLDSTLHAV; listed as Homo sapiens) [compound 635] | – | – |
